Laboratory results published in patent publication US20190352409A1 (AUTOLUS, published 2019).

Legend:
[1] = target: T1, Transmembrane activator and calcium modulator and cyclophilin ligand (CAML) interactor (TACI), on cells (human, UniProt O14836 1-293); test: Biacore SPR
T1 chain: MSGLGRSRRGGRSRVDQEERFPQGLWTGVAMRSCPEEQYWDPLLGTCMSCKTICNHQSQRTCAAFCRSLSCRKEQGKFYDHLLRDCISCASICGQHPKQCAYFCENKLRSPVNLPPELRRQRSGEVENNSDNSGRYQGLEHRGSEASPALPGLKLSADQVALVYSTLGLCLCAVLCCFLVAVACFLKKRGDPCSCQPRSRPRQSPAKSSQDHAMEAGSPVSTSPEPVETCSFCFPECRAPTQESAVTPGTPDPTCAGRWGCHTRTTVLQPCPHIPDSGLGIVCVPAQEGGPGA

[2] = target: T2, Transmembrane activator and calcium modulator and cyclophilin ligand (CAML) interactor (TACI), on cells (human, UniProt O14836 1-293); test: flow cytometry on TACI positive SupT1 cells (FIG. 6b)
T2 construct: whole, on cells; also called TNFRSF13B; SupT1 TACI cells
T2 sequence (looked up): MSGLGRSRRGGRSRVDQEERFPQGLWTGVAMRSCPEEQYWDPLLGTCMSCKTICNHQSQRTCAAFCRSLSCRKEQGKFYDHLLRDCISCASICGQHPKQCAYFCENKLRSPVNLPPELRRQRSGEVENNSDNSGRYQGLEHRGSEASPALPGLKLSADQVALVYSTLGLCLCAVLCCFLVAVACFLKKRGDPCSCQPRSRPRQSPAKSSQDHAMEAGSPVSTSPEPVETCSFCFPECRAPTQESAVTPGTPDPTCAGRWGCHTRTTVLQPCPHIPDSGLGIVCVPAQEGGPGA
Excerpt: b) Confirmatory analysis of TACI binding by flow cytometry. Hybridoma lines were screened on TACI positive and BCMA positive SupT1 cells. The four hybridomas with the highest reactivity to SupT1 TACI cells were chosen for subcloning and characterisation
Five mice with TACI positive sera were selected for a final immunization boost before the spleens were harvested for B cell isolation and hybridoma production. Hybridoma fusions of 10×96-well plates with lymphocytes from the selected mice were performed. Hybridoma supernatants were screened for reactive anti-TACI antibodies by ELISA screening against recombinant human TACI purified protein (Peprotech, 310-17), representative data is shown in FIG. 6a. ELISA positive hybridoma supernatants were tested by flow cytometry, on SupT1 cells engineered to overexpress TACI. As a control BCMA expressing SupT1 cells were used, FIG. 6b. Candidate hybridomas were expanded.

Binder	Kd [1] [nM]	binding result [2]
4B11 anti-TACI monoclonal antibody (mouse hybridoma) (antibody, V domains shown, Tested as hybridoma supernatant from BalBC mice) VH: EVQLQQSVAELVRPGASVKLSCTASGFNIKNTYIHWVKQRPEQGLEWIGKIDPANGNSEYAPKFQGKATITADTSSNTAYLQLSSLTSEDTTIYYCTSGYGAYWGQGTTLTVSS VL: DIVLSQSPSSLAVSIGEKVTLSCKSSQSLLYSSNQKNYLAWFQQKPGQSLKLLIYWASTREFGVPDRFTGSGSGTDFTLTISSVKTEDLAVYYCQQYYTWTFGGGTKLEIK	0.379	binds
1G6 anti-TACI monoclonal antibody (mouse hybridoma) (antibody, V domains shown, Tested as hybridoma supernatant from BalBC mice) VH: QVQLKQSGPGLVAPSQSLSITCTVSGFSLTSYGVDWVRQSPGKGLEWLGIIWGGGRTNYNSAFKSRLSISKDNSKSQVFLKMNSLQTDDTAMYYCASGDRAADYWGQGTSVTVSS VL: DIVMTQSQKFMSTTVGDRVTITCKASQNVGTAVAWYQQKPGQSPKLLIYSASNRYTGVPVRFTGSGSGTDFTLTINNMQSEDLADYFCQQYSSYPLTFGAGTKLELK	0.21	binds
2H6 anti-TACI monoclonal antibody (mouse hybridoma) (antibody, V domains shown) VH: EVQLQQSGPELVKPGASVRMSCKASGYTFTNYVMHWVKQKPGQGLEWIGYINPSNDDTKYTEKFKGKATLTSDKSSSTAYMELSSLTSEDSAVYYCARGTHGDYYALDYWGQGTSVTVSS VL: DIVLTQSPASLAVSLGQSVTISCRASESVEYYGTSLMQWYQQKPGQAPKLLIYGASNVESGVPARFSGSGSGTDFSLNIHPVEEDDIAMYFCQQSRKVPWTFGGGTKLEI	0.051	
2G2 anti-TACI monoclonal antibody (mouse hybridoma) (antibody, V domains shown, Tested as hybridoma supernatant from BalBC mice) VH: QVTLKESGPGMLQPSQTLSLTCSFSGFSLSTFGMGVGWIRQPSGKGLEWLAHIWWDDAQYSNPALRSRLTISKDTSKNQVFLKIANVDTADTATYYCSRIHSYYSYDEGFAYWGQGTLVTVSS VL: DIVMTQSQKFMSTTVGDRVSITCKASQNVGTAVAWYQQKPGQSPKLLIYSASNRYTGVPDRFTGSGSGTDFTLTISNMQSEDLADYFCQQYSSYRTFGGGTKLEIKR	0.924	binds
